According to patent US20230203482A1, “Methods of Rescuing Stop Codons via Genetic Reassignment with ACE-tRNA” (THE WISTAR INSTITUTE OF ANATOMY AND BIOLOGY, priority 2017, published 2023):
Entries after “also recorded” stand apart in the source; their conditions may differ.

Key:
CFTR W1282X = assay: Two-electrode voltage clamp of CFTR W1282X in Xenopus laevis oocytes; format: cell-based, human
Description: (§1) In vitro cRNA transcription. G542XUGA, W1282XUGA, and WT CFTR pGEMHE (Mense et al., 2006; PMID:1703051) plasmids were linearized by 10× excess of NheI-HF restriction enzyme (site positioned 3′ of coding region)(New England BioLabs, USA) for 3 hours at 37° C. and purified using standard cDNA precipition methods. All cRNAs were transcribed using the mMessage mMachine T7 Kit (ThermoFisher Scientific; USA). Purification of the cRNA from the transcription reaction was conducted on columns from the RNeasy Mini Kit (Qiagen, Germany). Concentration was determined by absorbance measurements at 260 nm and quality was confirmed on a 1% agarose gel (RNase-free). All cRNA was queued to […] before use and all results were generated from ≥2 cRNA preparations.
(§2) In vitro tRNA transcription. […] Equimolar concentration of T7 oligo (5)-taatacgactcactata-3′) was annealed to ACE-tRNA PAGE-purified Ultramers (20 ug; Integrated DNA Technologies, Coralville, Iowa) coding for the ACE-tRNA and preceded by a T7 promoter (italics). Importantly, the three terminal nucleotides containing CCA were included (bold).
The total reaction volume was adjusted to 100 μl and the kit reagents were added in the following amounts: 10 μl of 10X T7-Scribe transcription buffer, 7.5 μl of each nucleotide (100 mM stocks), 10 μl of 100 mM Dithiothreitol, 2.5 μl ScriptGuard RNase Inhibitor, 10 μl T7-Scribe enzyme solution. After the reaction was incubated for 4-5 hours at 37° C., the DNA template was digested with 5 μl DNase (1 U/μl) provided with the kit for 30-60 min. The ACE-tRNA was extracted from the reaction with acidic phenol chloroform (5:1, pH 4.5) and precipitated with ethanol. […]
(§3) Two-electrode voltage clamp (TEVC) recordings. CFTR Cl^− currents were recorded in ND96 bath solution that contained (in mM): 96 NaCl, 2 KCl, 1 MgCl2, and 5 HEPES (pH 7.5) in the presence of a maximal CFTR activation cocktail, forskolin ([…]; adenylate cyclase activator) and 3-isobutyl-1-methylxanthine (1 mM; phosphodiesterase inhibitor). […]

CFTR G542X = assay: Two-electrode voltage clamp of CFTR G542X in Xenopus laevis oocytes; format: cell-based, human; conditions: for rescued CFTR current relative to WT CFTR: compared to WT CFTR cRNA 25 ng
Description: as §1, §2
The total reaction volume was adjusted to 100 μl and the kit reagents were added in the following amounts: 10 μl of 10X T7-Scribe transcription buffer, 7.5 μl of each nucleotide (100 mM stocks), 10 μl of 100 mM Dithiothreitol, 2.5 μl ScriptGuard RNase Inhibitor, 10 μl T7-Scribe enzyme solution. After the reaction was incubated for 4-5 hours at 37° C., the DNA template was digested with 5 μl DNase (1 U/μl) provided with the kit for 30-60 min. The ACE-tRNA was extracted from the reaction with acidic phenol chloroform (5:1, pH 4.5) and precipitated with ethanol. The precipitates ACE-tRNA was pelleted, washed, dried and resuspended in 100 μl DEPC-treated water and further purified with Chrorna Spin-30 columns (Clontech, USA). The procedure yielded roughly 100 μl of ˜5 μg/μl ACE-tRNA. ACE-tRNAs were re-pelleted in 20 ug aliquots, washed, lyophilized and stored at −80° C. until use. All results were generated from ≥2 ACE-tRNA preparations.
Expression in Xenopus laevis oocytes. Xenopus laevis oocytes (stage V and VI) were purchased from Ecocyte (Austin, Tex.). Prior to injection, each ACE-tRNA pellet was resuspended in 2 μl of ddH2O and debris was pelleted at 21,000×g, 4° C. for 25 min. […]
as §3

Molecule: Trpchr17.trna39: top performing tryptophan ACE-tRNA UGA suppressor, SEQ ID NO: 48
- Hill coefficient (CFTR W1282X; W1282X dose response): 1.24
- CFTR chloride conductance, suppression of UGA PTC (CFTR W1282X; W1282X, 200 ng ACE-tRNA co-injected, forskolin and IBMX): highly efficacious
- rescued CFTR current relative to WT CFTR (CFTR W1282X; W1282X, compared to WT CFTR cRNA 25 ng): ~50%

B1: Glychr19.trna2: top performing glycine ACE-tRNA UGA suppressor, SEQ ID NO: 53 (nucleic acid)
chain: GCGTTGGTGGTATAGTGGTTAGCATAGCTGCCTTCAAAGCAGTTGACCCGGGTTCGATTCCCGGCCAACGCA
modifications: chemistry not fully specified
- Hill coefficient (CFTR G542X; G542X dose response): ~1.4
- CFTR chloride conductance, suppression of UGA PTC (CFTR G542X; G542X, 200 ng ACE-tRNA co-injected, forskolin and IBMX): highly efficacious
- rescued CFTR current relative to WT CFTR (CFTR G542X; G542X): WT-like current levels of expression
- rescued CFTR current relative to WT CFTR (CFTR G542X; G542X, listed as ACE-tRNAGly): clear saturation at WT CFTR levels; also recorded: achieves WT-level of expressed CFTR current
